# Molecular target: brr2_yeast BRR2 (UniProt P32639)
# Sequence (P32639 whole entry): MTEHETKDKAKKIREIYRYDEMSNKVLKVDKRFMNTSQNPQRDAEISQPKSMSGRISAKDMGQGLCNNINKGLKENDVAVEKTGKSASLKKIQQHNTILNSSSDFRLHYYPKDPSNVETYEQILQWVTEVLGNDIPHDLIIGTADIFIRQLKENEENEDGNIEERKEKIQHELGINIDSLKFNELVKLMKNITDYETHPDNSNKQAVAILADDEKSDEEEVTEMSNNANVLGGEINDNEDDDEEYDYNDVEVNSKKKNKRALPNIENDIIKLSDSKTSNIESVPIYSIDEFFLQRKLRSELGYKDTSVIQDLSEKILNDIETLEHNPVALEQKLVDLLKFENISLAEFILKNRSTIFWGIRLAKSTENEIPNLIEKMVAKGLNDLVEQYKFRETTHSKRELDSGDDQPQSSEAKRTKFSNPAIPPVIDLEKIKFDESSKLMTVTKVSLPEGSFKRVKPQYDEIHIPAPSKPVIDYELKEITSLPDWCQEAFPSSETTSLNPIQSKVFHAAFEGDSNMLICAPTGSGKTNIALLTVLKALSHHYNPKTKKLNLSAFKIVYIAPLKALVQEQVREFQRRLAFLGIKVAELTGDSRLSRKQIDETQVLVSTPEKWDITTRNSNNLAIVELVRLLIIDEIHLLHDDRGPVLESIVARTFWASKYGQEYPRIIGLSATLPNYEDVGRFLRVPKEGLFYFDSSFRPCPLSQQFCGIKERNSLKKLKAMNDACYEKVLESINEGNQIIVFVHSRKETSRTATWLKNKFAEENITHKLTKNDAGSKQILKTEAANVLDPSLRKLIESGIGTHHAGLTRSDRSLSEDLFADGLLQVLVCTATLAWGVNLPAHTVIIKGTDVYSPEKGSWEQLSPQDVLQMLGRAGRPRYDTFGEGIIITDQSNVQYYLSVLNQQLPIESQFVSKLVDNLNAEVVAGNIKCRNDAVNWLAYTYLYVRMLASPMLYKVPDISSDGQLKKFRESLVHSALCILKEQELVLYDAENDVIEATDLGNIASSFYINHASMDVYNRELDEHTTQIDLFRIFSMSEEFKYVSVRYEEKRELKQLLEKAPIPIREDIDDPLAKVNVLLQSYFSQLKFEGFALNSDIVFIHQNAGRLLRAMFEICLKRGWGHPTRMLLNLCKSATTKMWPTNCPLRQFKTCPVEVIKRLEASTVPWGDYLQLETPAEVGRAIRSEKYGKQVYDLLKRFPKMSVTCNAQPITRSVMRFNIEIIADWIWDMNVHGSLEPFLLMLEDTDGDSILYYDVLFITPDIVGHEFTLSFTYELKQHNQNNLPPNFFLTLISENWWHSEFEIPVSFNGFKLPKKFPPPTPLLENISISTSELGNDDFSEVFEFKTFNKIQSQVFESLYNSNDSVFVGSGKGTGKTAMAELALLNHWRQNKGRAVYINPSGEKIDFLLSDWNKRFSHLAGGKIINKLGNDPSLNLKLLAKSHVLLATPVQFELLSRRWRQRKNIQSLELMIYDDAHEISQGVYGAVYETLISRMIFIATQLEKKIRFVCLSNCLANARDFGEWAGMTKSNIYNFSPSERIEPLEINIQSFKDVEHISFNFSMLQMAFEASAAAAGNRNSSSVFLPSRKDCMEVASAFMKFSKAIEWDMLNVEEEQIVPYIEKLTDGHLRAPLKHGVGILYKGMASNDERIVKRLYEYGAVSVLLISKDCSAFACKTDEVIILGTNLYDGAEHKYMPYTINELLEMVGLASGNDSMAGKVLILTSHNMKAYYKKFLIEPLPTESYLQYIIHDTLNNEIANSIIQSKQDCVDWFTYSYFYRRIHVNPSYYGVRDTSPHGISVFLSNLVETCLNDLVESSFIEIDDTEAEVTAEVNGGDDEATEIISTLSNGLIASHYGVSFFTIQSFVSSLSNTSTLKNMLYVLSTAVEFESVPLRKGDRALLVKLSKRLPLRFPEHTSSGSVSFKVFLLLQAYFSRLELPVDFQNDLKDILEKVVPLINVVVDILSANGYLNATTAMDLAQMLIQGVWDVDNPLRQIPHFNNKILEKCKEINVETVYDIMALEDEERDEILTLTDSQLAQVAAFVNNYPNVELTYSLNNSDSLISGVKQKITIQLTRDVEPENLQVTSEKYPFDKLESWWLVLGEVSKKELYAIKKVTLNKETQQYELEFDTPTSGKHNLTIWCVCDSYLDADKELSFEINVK
# Chain of Pre-mRNA-splicing factor 8 (Saccharomyces cerevisiae), P33334 P2379T (P33334 whole entry P2379T): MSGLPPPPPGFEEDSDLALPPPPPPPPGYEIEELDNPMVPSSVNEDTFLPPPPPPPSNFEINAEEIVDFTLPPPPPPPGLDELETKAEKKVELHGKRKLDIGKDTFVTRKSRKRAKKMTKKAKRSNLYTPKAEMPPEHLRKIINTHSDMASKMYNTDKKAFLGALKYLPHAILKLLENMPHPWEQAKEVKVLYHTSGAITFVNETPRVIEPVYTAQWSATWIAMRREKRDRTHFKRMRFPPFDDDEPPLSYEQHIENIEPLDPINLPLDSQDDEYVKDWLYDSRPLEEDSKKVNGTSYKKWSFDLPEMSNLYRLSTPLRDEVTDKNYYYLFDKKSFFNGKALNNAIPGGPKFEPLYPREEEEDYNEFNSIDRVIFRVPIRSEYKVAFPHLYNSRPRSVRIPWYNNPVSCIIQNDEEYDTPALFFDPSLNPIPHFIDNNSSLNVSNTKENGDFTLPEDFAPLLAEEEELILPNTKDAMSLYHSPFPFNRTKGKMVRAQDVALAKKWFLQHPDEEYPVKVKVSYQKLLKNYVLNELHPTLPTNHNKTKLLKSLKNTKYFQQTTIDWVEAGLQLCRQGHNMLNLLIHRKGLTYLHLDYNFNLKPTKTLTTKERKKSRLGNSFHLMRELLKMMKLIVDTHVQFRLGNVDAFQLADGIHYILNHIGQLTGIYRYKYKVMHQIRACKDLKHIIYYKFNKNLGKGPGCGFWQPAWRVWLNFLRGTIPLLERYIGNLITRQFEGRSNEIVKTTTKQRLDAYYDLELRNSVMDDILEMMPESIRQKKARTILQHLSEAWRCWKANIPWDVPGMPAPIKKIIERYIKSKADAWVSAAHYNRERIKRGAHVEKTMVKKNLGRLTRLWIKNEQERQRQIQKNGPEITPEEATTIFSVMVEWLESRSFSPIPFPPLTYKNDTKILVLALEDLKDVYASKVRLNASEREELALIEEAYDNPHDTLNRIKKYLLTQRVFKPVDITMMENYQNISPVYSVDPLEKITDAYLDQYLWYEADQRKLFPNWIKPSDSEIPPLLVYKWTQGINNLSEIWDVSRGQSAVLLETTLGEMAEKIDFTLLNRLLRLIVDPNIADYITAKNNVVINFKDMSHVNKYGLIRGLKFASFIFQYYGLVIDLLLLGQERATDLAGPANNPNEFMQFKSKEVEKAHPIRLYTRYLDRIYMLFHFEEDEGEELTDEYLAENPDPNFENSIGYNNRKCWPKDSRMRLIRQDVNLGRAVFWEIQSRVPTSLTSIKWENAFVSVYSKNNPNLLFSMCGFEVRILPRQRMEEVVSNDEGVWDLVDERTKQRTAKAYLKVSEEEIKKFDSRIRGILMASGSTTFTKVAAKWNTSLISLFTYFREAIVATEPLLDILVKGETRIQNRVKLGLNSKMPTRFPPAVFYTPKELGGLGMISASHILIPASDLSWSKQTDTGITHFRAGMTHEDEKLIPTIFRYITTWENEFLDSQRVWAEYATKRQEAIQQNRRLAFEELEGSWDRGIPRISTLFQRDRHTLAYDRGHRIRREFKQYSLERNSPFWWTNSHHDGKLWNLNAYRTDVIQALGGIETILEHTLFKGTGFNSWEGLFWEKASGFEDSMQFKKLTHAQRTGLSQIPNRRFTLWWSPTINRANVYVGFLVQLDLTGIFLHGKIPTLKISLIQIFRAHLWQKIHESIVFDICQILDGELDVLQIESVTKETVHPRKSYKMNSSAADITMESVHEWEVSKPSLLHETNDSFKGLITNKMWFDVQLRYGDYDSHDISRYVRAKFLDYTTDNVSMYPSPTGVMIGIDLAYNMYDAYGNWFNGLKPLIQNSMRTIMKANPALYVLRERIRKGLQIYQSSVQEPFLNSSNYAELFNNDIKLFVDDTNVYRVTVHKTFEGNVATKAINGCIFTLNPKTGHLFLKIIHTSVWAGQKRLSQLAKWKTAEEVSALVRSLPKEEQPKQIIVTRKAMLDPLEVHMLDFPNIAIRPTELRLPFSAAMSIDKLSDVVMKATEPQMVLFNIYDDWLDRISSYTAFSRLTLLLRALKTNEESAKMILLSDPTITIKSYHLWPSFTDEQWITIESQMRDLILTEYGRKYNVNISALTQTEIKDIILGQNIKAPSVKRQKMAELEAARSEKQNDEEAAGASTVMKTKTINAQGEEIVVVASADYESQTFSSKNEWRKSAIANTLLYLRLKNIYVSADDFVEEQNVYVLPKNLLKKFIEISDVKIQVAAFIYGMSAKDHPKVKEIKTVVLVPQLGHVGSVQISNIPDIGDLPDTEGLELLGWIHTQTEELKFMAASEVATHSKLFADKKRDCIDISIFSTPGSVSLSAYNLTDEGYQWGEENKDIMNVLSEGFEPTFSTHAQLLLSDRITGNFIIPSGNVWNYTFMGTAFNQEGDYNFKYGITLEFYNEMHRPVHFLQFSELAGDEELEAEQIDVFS
row,Substance,effect of a mutation on the interaction
1,"Pre-mRNA-splicing factor 8 (Saccharomyces cerevisiae), P33334 F2382L",decreasing interaction
2,"Pre-mRNA-splicing factor 8 (Saccharomyces cerevisiae), P33334 F2392L",disrupting interaction
3,"Pre-mRNA-splicing factor 8 (Saccharomyces cerevisiae), P33334 H2387P",disrupting interaction
4,"Pre-mRNA-splicing factor 8 (Saccharomyces cerevisiae), P33334 H2387R",disrupting interaction
5,"Pre-mRNA-splicing factor 8 (Saccharomyces cerevisiae), P33334 P2379T",decreasing interaction
6,"Pre-mRNA-splicing factor 8 (Saccharomyces cerevisiae), P33334 R2388G",disrupting interaction
7,"Pre-mRNA-splicing factor 8 (Saccharomyces cerevisiae), P33334 R2388K",disrupting interaction
